In patent publication US20220119501A1 (INVISISHIELD TECHNOLOGIES, published 2022):

Molecular target: T1, S1 subunit polypeptide of SARS-CoV-2 spike protein (isolate 2019-nCoV, WIV4) (SARS-CoV-2 (isolate 2019-nCoV, WIV4), UniProt P0DTC2 16-685)
Experiment: not given

Binder	IC50
anti-S1 (SARS-CoV-2) scFv clone #26 (scFv) scFv: QAVLTQAPSASGTLGQQVTISCSGTTSNIGRNTVNWYQHLPGTAPKLLIFVSNQRPSGVPDRFSGSKSGTSASLVISGLQSEDEADYYCGAWDDSLDGMLFGGGTKLTVLGSRGGGGSGGGGSGGGGSLEMAQVQLVQSGAEVKKPGASVKVSCKASGYTFTSYGISWVRQAPGQGLEWMGWISAYNGNTNYAQKLQGRVTMTTDTSTSTAYMELRSLRSDDTAVYYCARGYYGDLDPWGQGTLVTVSSTSGQAGQ	1.33 nM

Molecular target: T1, S1 subunit polypeptide of SARS-CoV-2 …
Experiment: phage ELISA on SARS-CoV-2 spike S1 (FIG. 1)

Binder	binding result
anti-S1 (SARS-CoV-2) scFv clone #09 (scFv, also called phage clone #09) scFv: NFMLTQPHSVSESPGKTVSISCTGSSGSIASNYVQWYQQRPGSAPTTVIYEDKERPSGVPNRFSGSIDRSSNSASLTISGLKTEDEADYYCQSYDDGNVVFGGGTKLTVLGSRGGGGSGGGGSGGGGSLEMAEVQLVESGAEVKKPGASVKVSCKASGYTFTSYGISWVRQAPGQGLEWMGWISAYNGNTNYAQKFQDRVTLTTDTSTNTAYMLLRSLRSDDTAVYYCARTWYSYHYDIWGQGTLVTVSSTSGQAGQ	binds
anti-S1 (SARS-CoV-2) scFv clone #19 (scFv, also called phage clone #19) scFv: QSALTQPASVSGSPGQSITISCTGTSSDVGGYNYVSWYQQHPGKVPKLMIYEVSNRPSGVSNRFSGSKSGNTASLTISGLQAEDEADYYCSSYTSGDTLVFGGGTKVTVLGSRGGGGSGGGGSGGGGSLEMAELQLVESGGGVVQPGRSPRLSCAASGFTFSNYPMHWVRQAPGKGLEWVAVISYDGNHKYYADSLEGRFSISRDNSKNTLYLQMNSLTAADTAVYYCARGGGMGGLDSWGQGTLVTVSSTSGQAGQ	binds
anti-S1 (SARS-CoV-2) scFv clone #20 (scFv, also called phage clone #20) scFv: SYVLTQPPSASGTPGQRVTISCSGSSSNIGSNTVNWYQQLPGTAPKLLIYSNNQRPSGVPDRFSASKSGTSASLAISGFQSEDEADYYCAAWDDSLDGYVFGTGTKVTVLGSRGGGGSGGGGSGGGGSLEMAEVQLVQSGAEVKKPGESLKISCKGSGYSFPSYWIGWVRQMPGKGLEWMGIIYPGDSDTRYSPSFQGQVTISADKSISTAYLQWSSLKASDTAMYYCARGSYTYMGGSYDYWGQGTLVTVSSTSGQAGQ	binds
anti-S1 (SARS-CoV-2) scFv clone #30 (scFv, also called phage clone #30) scFv: QSALTQPPSASGSPGQSVTISCTGTSSDVGGYDYVSWYQQHPGKAPKLMIYEVSKRPSGVSNRFSGSKSGNTASLTISGLQAEDEADYYCSSYTSSSTFPYVFGTGTKVTVLGSRGGGGSGGGGSGGGGSLEMAEVQLVESGGGLEQPGGSLRLSCAASGFTFSSYAMSWVRQAPGKGLEWVSAISASGNSTFYADSVKGRFTISRDNSKHTLDLQMNSLRADDTAVYYCARNSDVWGQGTLVTVSSTSGQAGQ	binds
anti-S1 (SARS-CoV-2) scFv clone #15 (scFv, also called phage clone #15) scFv: QSVLTQPPSVSEAPRQRVTISCSGSSSNIGNNAVNWYQQLPGKAPKLLIYFNDVQSSGVSDRFSGSKSGTSASLAISGLQSEDEADYYCAAWDDSLNAVLFGGGTKLTVLGSRGGGGSGGGGSGGGGSLEMAEVQLVQSGAEVKKPGASVKVSCKASGYTFTGYYMHWVRQAPGQGLEWMGRINPNSGGTDYARKFRGRVTMTRDTSISTAYMELSRLTSDDTAMYYCARGYGDDWGQGTLVTVSSTSGQAGQ	binds
anti-S1 (SARS-CoV-2) scFv clone #13 (scFv, also called phage clone #13) scFv: QSVLTQPPSASGTPGQRVTISCSGSSSNIGSNYVYWYQQLPGTAPKLLIYRNNQRPSGVPDRFSGSKSGTSASLAISGLRSEDEADYYCAAWDDSLSGPNYVFGTGTKVTVLGSRGGGGSGGGGSGGGGSLEMAQVQLVQSGAEVKKPGSSVKVSCKASGGTFSSYAISWVRQAPGQGLEWMGWISGYNGNTNYAQKLQGRVTMTTDTSTSTAYMELRSLRSDDTAVYYCARTGWSKGEKVTTWGEWFYVDYWGQGTLVTVSSTSGQAGQ	binds
